US20150355179
Where two headings read alike, the source gives them in different places.

B1: recombinant CDK4/Cyclin D (enzyme, part only; not given: Cyclin D partner)
chain: MATSRYEPVAEIGVGAYGTVYKARDPHSGHFVALKSVRVPNGGGGGGGLPISTVREVALLRRLEAFEHPNVVRLMDVCATSRTDREIKVTLVFEHVDQDLRTYLDKAPPPGLPAETIKDLMRQFLRGLDFLHANCIVHRDLKPENILVTSGGTVKLADFGLARIYSYQMALTPVVVTLWYRAPEVLLQSTYATPVDMWSVGCIFAEMFRRKPLFCGNSEADQLGKIFDLIGLPPEDDWPRDVSLPRGAFPPRGPRPVQSVVPEMEESGAQLLLEMLTFNPHKRISAFRALQHSYLHKDEGNPE
B2: Plk3 kinase (protein)
chain: MEPAAGFLSPRPFQRAAAAPAPPAGPGPPPSALRGPELEMLAGLPTSDPGRLITDPRSGRTYLKGRLLGKGGFARCYEATDTETGSAYAVKVIPQSRVAKPHQREKILNEIELHRDLQHRHIVRFSHHFEDADNIYIFLELCSRKSLAHIWKARHTLLEPEVRYYLRQILSGLKYLHQRGILHRDLKLGNFFITENMELKVGDFGLAARLEPPEQRKKTICGTPNYVAPEVLLRQGHGPEADVWSLGCVMYTLLCGSPPFETADLKETYRCIKQVHYTLPASLSLPARQLLAAILRASPRDRPSIDQILRHDFFTKGYTPDRLPISSCVTVPDLTPPNPARSLFAKVTKSLFGRKKKSKNHAQERDEVSGLVSGLMRTSVGHQDARPEAPAASGPAPVSLVETAPEDSSPRGTLASSGDGFEEGLTVATVVESALCALRNCIAFMPPAEQNPAPLAQPEPLVWVSKWVDYSNKFGFGYQLSSRRVAVLFNDGTHMALSANRKTVHYNPTSTKHFSFSVGAVPRALQPQLGILRYFASYMEQHLMKGGDLPSVEEVEVPAPPLLLQWVKTDQALLMLFSDGTVQVNFYGDHTKLILSGWEPLLVTFVARNRSACTYLASHLRQLGCSPDLRQRLRYALRLLRDRSPA

Columns and labels:
[1] = tested on: GST-CDKACTH1 labelled with Cy3 (CDKACTH1-Cy3)
[2] = target: T1, GST-CDKACTH1 labelled with Cy3 (CDKACTH1-Cy3)
T1 chain: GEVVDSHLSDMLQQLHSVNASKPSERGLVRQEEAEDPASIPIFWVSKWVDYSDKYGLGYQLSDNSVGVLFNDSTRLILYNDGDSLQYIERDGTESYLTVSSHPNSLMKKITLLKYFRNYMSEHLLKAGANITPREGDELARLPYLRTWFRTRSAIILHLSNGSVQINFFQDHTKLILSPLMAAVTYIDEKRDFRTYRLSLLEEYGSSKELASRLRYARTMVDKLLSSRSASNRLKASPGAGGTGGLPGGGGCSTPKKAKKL

| Protein | real-time fluorescence kinase assay (Cy3 fluorescence) [1] | real-time fluorescence kinase assay (Cy3 fluorescence) [2] |
| --- | --- | --- |
| B1 | CDK4/Cyclin D kinase induced changes in CDKACTH1 fluorescence reminiscent of CDK2/Cyclin A |  |
| B2 |  | Plk1 or Plk3 did not induce any significant changes in the fluorescence of CDKACTH1, in the same range of concentrations |
